Test results reported in paper PMC3585124, “The Interaction of CtIP and Nbs1 Connects CDK and ATM to Regulate HR–Mediated Double-Strand Break Repair” (PLoS Genetics, 2013).
Values belong to the molecule of their own block, whether it stands above or below them.

Legend:
Nbs1 1-335 = Nbs1 1-335 (UniProt O60934); assay: co-expression, GST pull-down, anti-Flag blot; details: reference: wild-type 200-600 fragment
BRCA1 = BRCA1 (UniProt P38398); assay: co-immunoprecipitation, HA-CtIP and Myc-BRCA1; details: reference: wild type; sites S327
[1] = molecular target: T1, GST-CtIP-His (purified CtIP-WT) (human, UniProt Q99708 1-897, phosphorylated by CDKs when expressed in insect cells (sites in Table S2)); assay: pull-down; purified Nbs1(1–335) or Nbs1(1–335)-RRHK incubated with purified CtIP-WT or CtIP-12A-CDK coupled to glutathione agarose beads; Western blot with anti-His and anti-GST; details: both partners purified
T1 construct: CtIP, human; also called GST-CtIP WT
T1 sequence (Q99708 whole entry): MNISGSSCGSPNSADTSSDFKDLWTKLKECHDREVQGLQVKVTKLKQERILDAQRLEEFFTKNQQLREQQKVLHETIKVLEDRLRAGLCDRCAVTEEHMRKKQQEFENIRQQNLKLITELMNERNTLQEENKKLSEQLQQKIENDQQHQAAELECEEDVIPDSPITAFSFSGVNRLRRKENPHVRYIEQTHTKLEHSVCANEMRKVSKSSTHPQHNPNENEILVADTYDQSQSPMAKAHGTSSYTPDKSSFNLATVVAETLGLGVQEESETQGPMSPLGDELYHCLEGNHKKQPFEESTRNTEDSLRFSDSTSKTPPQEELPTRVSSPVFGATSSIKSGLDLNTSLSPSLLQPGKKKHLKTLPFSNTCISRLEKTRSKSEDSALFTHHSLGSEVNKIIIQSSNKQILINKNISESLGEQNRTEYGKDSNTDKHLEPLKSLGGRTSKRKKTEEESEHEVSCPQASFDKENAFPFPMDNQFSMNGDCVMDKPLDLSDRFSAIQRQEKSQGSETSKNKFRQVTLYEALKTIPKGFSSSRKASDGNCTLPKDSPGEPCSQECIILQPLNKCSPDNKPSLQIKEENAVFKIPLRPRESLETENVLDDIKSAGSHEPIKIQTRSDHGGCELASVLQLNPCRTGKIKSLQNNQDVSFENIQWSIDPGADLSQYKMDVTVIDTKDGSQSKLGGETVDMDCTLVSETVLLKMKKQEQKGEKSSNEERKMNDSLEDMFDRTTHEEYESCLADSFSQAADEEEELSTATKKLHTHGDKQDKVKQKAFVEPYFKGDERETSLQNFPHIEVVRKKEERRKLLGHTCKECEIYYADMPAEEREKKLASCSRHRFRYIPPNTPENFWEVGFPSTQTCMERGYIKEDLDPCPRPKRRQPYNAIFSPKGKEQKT

Molecule: CtIP 200-600 (from UniProt Q99708) 5A-CDK
binding against the reference (Nbs1 1-335; sites S233,T245,S276,T315,S347): lost

Molecule: CtIP 200-600 (from UniProt Q99708) S233A/T245A/S276A (printed S233A/S245A/S276A)
binding against the reference (Nbs1 1-335; sites S233,T245,S276): weaker

Molecule: CtIP 200-600 (from UniProt Q99708) T245A/S276A/S347A
binding against the reference (Nbs1 1-335; sites T245,S276,S347): weaker

B1: Purified Nbs1(1–335) (domain or fragment, human, UniProt O60934 1-335, looked up)
chain: MWKLLPAAGPAGGEPYRLLTGVEYVVGRKNCAILIENDQSISRNHAVLTANFSVTNLSQTDEIPVLTLKDNSKYGTFVNEEKMQNGFSRTLKSGDGITFGVFGSKFRIEYEPLVACSSCLDVSGKTALNQAILQLGGFTVNNWTEECTHLVMVSVKVTIKTICALICGRPIVKPEYFTEFLKAVESKKQPPQIESFYPPLDEPSIGSKNVDLSGRQERKQIFKGKTFIFLNAKQHKKLSSAVVFGGGEARLITEENEEEHNFFLAPGTCVVDTGITNSQTLIPDCQKKWIQSIMDMLQRQGLRPIPEAEIGLAVIFMTTKNYCDPQGHPSTGLKT
notes: also called Nbs1-WT-N; source: Sf9 insect cells, purified (Ni-NTA column followed by MonoQ column); not shown: His, C-terminal, kept
binding result [1]: binds

Now from value to molecule:

binding against the reference (Nbs1 1-335; sites T315,S347): weaker
Molecule: CtIP 200-600 (from UniProt Q99708) T315A/S347A

binding against the reference (BRCA1): weaker
Molecule: CtIP (from UniProt Q99708) S327A
